How the values were obtained:
Format in all cases: cell-based
[1] = High throughput electrophysiology in HEK293T cells, AZD-0328; conditions: HEK293T cells, held at −60 mV
Outline: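 Engineered receptors transiently expressed in HEK293T cells, recorded 24 h post-transfection by automated whole-cell patch clamp at −60 mV, CsCl intracellular, pH 7.2 extracellular buffer. Progressive agonist doses applied for 1 s; peak currents fit to a 4-parameter Hill equation for EC50.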

[2] = YFP quench plate reader assay, response to TC-5619; conditions: LX293T YFP reporter cells
Outline: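 Double mutants of engineered chimeric receptor SEQ ID NO:33 are expressed transiently in YFP-reporter LX293T cells and challenged with ligand doses in iodide buffer. Quench is measured on a plate reader over 2 min, giving percent quench […].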

[3] = Manual patch clamp, HEK cell line, Facinicline/RG3487; conditions: HEK293 cells and cultured rat DRG sensory neurons
Protocol: FIG. 2A-FIG. 2B show the concentration-response curves of CR-11 (Chemogenic receptor-11, an engineered receptor comprising an amino acid sequence having the amino acid substitutions of Y115D and L131Q in SEQ ID NO: 33) expressed in HEK 293 cells to acetylcholine as well as to non-native ligands RG-3487 (SA-2, Synthetic Agonist-2). The responses were evaluated using manual patch clamp electrophysiology. Currents were normalized to unity for the maximal response. The continuous line through the data points is the best fit obtained with the Hill equation, and EC50s for each ligand are estimated from the concentration-response curves.
Using whole cell manual patch clamp electrophysiology in HEK293 cells and rat DRG neurons, the EC50 of the various engineered receptors disclosed herein to Ach and non-native ligands was measured. The rheobase shift was also measured in rat DRG neurons, which reflects the efficacy of the receptors. To calculate the rheobase, first, the amount of current that can produce an action potential was determined. Then the ligand was added, followed by a step wise increase in the current injected up to 700 pA. […] The EC50 was calculated using the Hill equation with peak current measurements from escalating doses of ligand.

B1: Y115D, L131Q in SEQ ID NO: 33: CR-11 (Chemogenic receptor-11): SEQ ID NO: 33 with substitutions Y115D and L131Q (protein)
chain: MRCSPGGVWLALAASLLHVSLQGEFQRKLYKELVKNYNPLERPVANDSQPLTVYFSLSLLQIMDVDEKNQVLTTNIWLQMSWTDHYLQWNVSEYPGVKTVRFPDGQIWKPDILLDNSADERFDATFHTNVQVNSSGHCQYLPPGIFKSSCPMDLKNFPMDVQTCKLKFGSWSYGGWSLDLQMQEADISGYIPNGEWDLVGIPGKRSERFYECCKEPYPDVTFTVTMRRRMGYYLIQMYIPSLLIVILSWISFWINMDAAPARVGLGITTVLTMTTQSSGSRASLPKVSYVKAIDIWMAVCLLFVFSALLEYAAVNFVSRQHKELLRFRRKRRHHKSPMLNLFQEDEAGEGRFNFSAYGMGPACLQAKDGISVKGANNSNTTNPPPAPSKSPEEMRKLFIQRAKKIDKISRIGFPMAFLIFNMFYWIIYKIVRREDVHNQ
modifications: synthetic sequence of chimeric LGIC
- EC50 AZD-0328 [1]: no activity
- percent quench of YFP fluorescence, 1 nM brd ([2]; 1 nM TC-5619): 0.92%
- percent quench of YFP fluorescence, 3 nM brd ([2]; 3 nM TC-5619): −4.65%
- percent quench of YFP fluorescence, 10 nM brd ([2]; 10 nM TC-5619): 0.38%
- percent quench of YFP fluorescence, 30 nM brd ([2]; 30 nM TC-5619): 8.96%
- percent quench of YFP fluorescence, 100 nM brd ([2]; 100 nM TC-5619): 12.18%
- percent quench of YFP fluorescence, 300 nM brd ([2]; 300 nM TC-5619): −0.3%
- percent quench of YFP fluorescence, 1 uM brd ([2]; 1 uM TC-5619): 45.47%
- sensitivity to RG-3487 compared to wildtype nAchRa7 receptor [3]: more sensitive
